Results taken from patent US20200297760A1 (JUNO THERAPEUTICS, published 2020).
No end group written: not given here.

Tests used:
[1] = target: T1, HLA-A*02:01 (recombinant MHC class I molecule) (human); assay: REVEAL MHC-peptide binding assay, recombinant MHC, score normalised to positive control = 100
T1 construct: Recombinant MHC used in the ProImmune REVEAL assay; also called HLA-A2:01
Description: (§1) Specifically, assessment was of a series of overlapping 9-mer peptides derived from the sequence […] (set forth in SEQ ID NO: 7), which contains a portion of the CD28 transmembrane domain and 4-1BB costimulatory domain spanning the junction between the domains (bond joining the two amino acids noted in underline). In addition, a series of overlapping 9-mer peptides of each of a number of different variants of this portion also were assessed, each variant containing a mutation or mutations in this region as described in Example 2.
(§2) The various 9-mer overlapping peptides were synthesized and their purity tested by MALDI-TOF Mass Spectrometry.

[2] = target: T2, HLA-A*03:01 (recombinant MHC class I molecule) (human); assay: as above
T2 construct: Recombinant MHC used in the ProImmune REVEAL assay
Description: as §1, §2

[3] = target: T3, HLA-A*11:01 (recombinant MHC class I molecule) (human); assay: REVEAL MHC-peptide binding assay, stabilisation of ternary complex with recombinant MHC
T3 construct: Recombinant MHC molecule of the ProImmune REVEAL assay
Description: as §1, §2

[4] = target: T4, HLA-B*08:01 (recombinant MHC class I molecule) (human); assay: as above
T4 construct: Recombinant MHC molecule of the ProImmune REVEAL assay
Description: as §1, §2

[5] = target: T5, HLA-A*02:01 (human); assay: REVEAL MHC-peptide binding assay, recombinant HLA
T5 construct: recombinant MHC class I molecule incubated with the synthetic peptide (REVEAL, ProImmune)
Description: as §1, §2

[6] = target: T6, HLA-A*03:01 (human); assay: REVEAL MHC-peptide binding assay, recombinant HLA
T6 construct: recombinant MHC class I molecule incubated with the synthetic peptide (REVEAL, ProImmune)
Description: as §1, §2

Binder	In Vitro Score [5]	In Vitro Score [6]	also measured
WVKRGRKKA (Synthetic 9-mer variant of the CD28 transmembrane / 4-1BB costimulatory junction region) [Synthetic peptide WVKRGRKKA (L34A)]			In Vitro Score [1]: 4.5 % of positive control peptide; In Vitro Score [2]: 0.9 % of positive control peptide
WVQRGNKKS (not fully specified, Synthetic 9-mer junction variant) [Synthetic peptide WVQRGNKKS (K28Q/L34S as labelled)]			In Vitro Score [1]: 1.2 % of positive control peptide; In Vitro Score [2]: 0.7 % of positive control peptide
WVQRGNKKA (not fully specified, Synthetic 9-mer junction variant) [Synthetic peptide WVQRGNKKA (K28Q/L34A as labelled)]			In Vitro Score [1]: 1.9 % of positive control peptide; In Vitro Score [2]: 1.2 % of positive control peptide
WVKRGRKKA (Synthetic 9-mer from the CD28 transmembrane / 4-1BB costimulatory junction region of a CAR) [WVKRGRKKA synthetic peptide L34A (SEQ ID NO: 90)]			In Vitro Score [3]: 3.1 % of positive control peptide; In Vitro Score [4]: 3.1 % of positive control peptide
AFIIFWVKR (synthetic 9-mer of the CD28-4-1BB junction; mutation: none)	0.5 % of positive control peptide	5.7 % of positive control peptide	
AFIIFWVQR (synthetic 9-mer variant; the entry already carries the change)	0.4 % of positive control peptide	0.2 % of positive control peptide	
AFIIFWVLR (synthetic 9-mer variant; the entry already carries the change)	5.7 % of positive control peptide	0.3 % of positive control peptide	
WVQRGNKKS (not fully specified, Synthetic 9-mer from the CD28/4-1BB junction region) [WVQRGNKKS synthetic peptide K28Q/L34S (SEQ ID NO: 91)]			In Vitro Score [3]: 5 % of positive control peptide; In Vitro Score [4]: 0 % of positive control peptide
WVQRGNKKA (not fully specified, Synthetic 9-mer from the CD28/4-1BB junction region) [WVQRGNKKA synthetic peptide K28Q/L34A (SEQ ID NO: 92)]			In Vitro Score [3]: 0.8 % of positive control peptide; In Vitro Score [4]: 0.7 % of positive control peptide
AFIIFWVRR (Synthetic 9-mer from the CD28/4-1BB junction region) [AFIIFWVRR synthetic peptide K28R (SEQ ID NO: 101)]			In Vitro Score [3]: 1.5 % of positive control peptide; In Vitro Score [4]: 0.3 % of positive control peptide
AFIIFWVRR (Synthetic 9-mer junction variant) [Synthetic peptide AFIIFWVRR (K28R)]			In Vitro Score [1]: 1.4 % of positive control peptide
WVKRGRKKL (synthetic 9-mer of the CD28-4-1BB junction; mutation: none)	1.4 % of positive control peptide	13.1 % of positive control peptide	
FIIFWVKRG (synthetic 9-mer of the CD28-4-1BB junction; mutation: none)	10.1 % of positive control peptide	1.4 % of positive control peptide	
FIIFWVQRG (synthetic 9-mer variant; the entry already carries the change)	16.8 % of positive control peptide	0.4 % of positive control peptide	
FIIFWVLRG (synthetic 9-mer variant; the entry already carries the change)	7.2 % of positive control peptide	0.1 % of positive control peptide	
FIIFWVSRG (synthetic 9-mer variant; the entry already carries the change)	0.2 % of positive control peptide	0.1 % of positive control peptide	

Now from value to binder, other results behind:

In Vitro Score [5]	In Vitro Score [6]	Binder	also measured
28.5 % of positive control peptide	0 % of positive control peptide	VAFIIFWVA (synthetic 9-mer variant; the entry already carries the change)	
3.1 % of positive control peptide	0.3 % of positive control peptide	VAFIIFWVH (synthetic 9-mer variant; the entry already carries the change)	
5.3 % of positive control peptide	0.2 % of positive control peptide	VAFIIFWVQ (synthetic 9-mer variant; the entry already carries the change)	
0.2 % of positive control peptide	0 % of positive control peptide	VAFIIFWVL (synthetic 9-mer variant; the entry already carries the change)	
4.4 % of positive control peptide	1.2 % of positive control peptide	WVQRGSKKL (synthetic 9-mer variant; the entry already carries the changes)	
2.4 % of positive control peptide	0.7 % of positive control peptide	WVLRGRKKL (synthetic 9-mer variant; the entry already carries the change)	
1.6 % of positive control peptide	3.4 % of positive control peptide	WVHRGRKKL (synthetic 9-mer variant; the entry already carries the change)	
3.9 % of positive control peptide	0.9 % of positive control peptide	WVKRGRKKS (synthetic 9-mer variant; the entry already carries the change)	
3 % of positive control peptide	2 % of positive control peptide	WVQRGAKKL (synthetic 9-mer variant; the entry already carries the changes)	
2.3 % of positive control peptide	2.1 % of positive control peptide	WVSRGRKKL (synthetic 9-mer variant; the entry already carries the change)	
24.5 % of positive control peptide	10 % of positive control peptide	WVKRGLKKL (synthetic 9-mer variant; the entry already carries the change)	
